Starred links: 1 amine or outer side, 2 acyl side, 3 side chain; linkers in the order of their positions; H or OH if unused. Non-standard residues stand in square brackets, D forms with d. *: point of attachment. dBip = N[C@H](Cc1ccc(-c2ccccc2)cc1)C(=O)O; Oic = O=C(O)[C@@H]1C[C@@H]2CCCC[C@@H]2N1; Phe(4-Cl) = N[C@@H](Cc1ccc(Cl)cc1)C(=O)O; dPhe(4-Cl) = N[C@H](Cc1ccc(Cl)cc1)C(=O)O; Phe(4-I) = N[C@@H](Cc1ccc(I)cc1)C(=O)O; γGlu = O=C(O)[C@H](CCC(=O)[*:2])N[*:1]; NMeR = CN[C@@H](CCCNC(=N)N)C(=O)O; Tridecanoyl = CCCCCCCCCCCCC(=O)*; hArg = N=C(N)NCCCC[C@H](N)C(=O)O; dTic = O=C(O)[C@H]1Cc2ccccc2CN1; Cha = N[C@@H](CC1CCCCC1)C(=O)O; NMeL = CN[C@@H](CC(C)C)C(=O)O; Tle = CC(C)(C)[C@H](N)C(=O)O; Nle = CCCC[C@H](N)C(=O)O; Deg = CCC(N)(CC)C(=O)O; AEEA = NCCOCCOCC(=O)O; Aib = CC(C)(N)C(=O)O; BLeu = β-leucine

The labels stand for the following.
T1: rat APJ receptor (rat, UniProt Q9JHG3 1-377)
T1 sequence (looked up): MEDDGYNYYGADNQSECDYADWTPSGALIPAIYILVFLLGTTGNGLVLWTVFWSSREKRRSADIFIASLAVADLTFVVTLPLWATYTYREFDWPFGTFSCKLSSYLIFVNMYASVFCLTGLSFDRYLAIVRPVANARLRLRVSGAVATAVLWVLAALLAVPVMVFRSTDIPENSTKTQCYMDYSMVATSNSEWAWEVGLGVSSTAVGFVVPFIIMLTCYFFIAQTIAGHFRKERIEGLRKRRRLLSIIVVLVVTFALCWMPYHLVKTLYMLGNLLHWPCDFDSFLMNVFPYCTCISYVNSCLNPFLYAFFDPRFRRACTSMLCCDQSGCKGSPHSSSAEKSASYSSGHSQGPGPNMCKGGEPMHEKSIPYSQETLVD

T2: human APJ receptor (human, UniProt P35414 1-380)
T2 sequence (looked up): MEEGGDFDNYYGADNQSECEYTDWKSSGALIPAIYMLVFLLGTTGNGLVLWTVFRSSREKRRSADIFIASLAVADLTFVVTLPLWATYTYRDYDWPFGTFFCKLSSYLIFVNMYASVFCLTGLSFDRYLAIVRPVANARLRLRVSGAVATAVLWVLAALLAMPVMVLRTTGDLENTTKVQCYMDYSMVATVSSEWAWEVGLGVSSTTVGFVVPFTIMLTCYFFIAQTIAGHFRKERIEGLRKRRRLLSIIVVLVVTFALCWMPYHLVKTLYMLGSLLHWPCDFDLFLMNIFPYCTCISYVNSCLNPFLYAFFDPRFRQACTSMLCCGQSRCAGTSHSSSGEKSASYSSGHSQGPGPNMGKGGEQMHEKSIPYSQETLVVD

B1: apelin polypeptide SEQ ID NO: 273 (peptide)
peptide: Tridecanoyl-[γGlu][AEEA][AEEA][dQ][hArg]P[dR][Cha]S[Aib]KG[Oic][Nle]P[Phe(4-Cl)]-OH
SMILES: CCCCCCCCCCCCC(=O)N[C@@H](CCC(=O)NCCOCCOCC(=O)NCCOCCOCC(=O)N[C@H](CCC(N)=O)C(=O)N[C@@H](CCCCNC(=N)N)C(=O)N1CCC[C@H]1C(=O)N[C@H](CCCNC(=N)N)C(=O)N[C@@H](CC1CCCCC1)C(=O)N[C@@H](CO)C(=O)NC(C)(C)C(=O)N[C@@H](CCCCN)C(=O)NCC(=O)N1[C@H](C(=O)N[C@@H](CCCC)C(=O)N2CCC[C@H]2C(=O)N[C@@H](Cc2ccc(Cl)cc2)C(=O)O)C[C@@H]2CCCC[C@@H]21)C(=O)O
B2: apelin polypeptide SEQ ID NO: 269 (peptide)
peptide: Tridecanoyl-[γGlu][AEEA][AEEA][dQ][hArg]P[dR][Cha]SHKG[Oic][Nle]P[dTic]-OH
SMILES: CCCCCCCCCCCCC(=O)N[C@@H](CCC(=O)NCCOCCOCC(=O)NCCOCCOCC(=O)N[C@H](CCC(N)=O)C(=O)N[C@@H](CCCCNC(=N)N)C(=O)N1CCC[C@H]1C(=O)N[C@H](CCCNC(=N)N)C(=O)N[C@@H](CC1CCCCC1)C(=O)N[C@@H](CO)C(=O)N[C@@H](Cc1c[nH]cn1)C(=O)N[C@@H](CCCCN)C(=O)NCC(=O)N1[C@H](C(=O)N[C@@H](CCCC)C(=O)N2CCC[C@H]2C(=O)N2Cc3ccccc3C[C@@H]2C(=O)O)C[C@@H]2CCCC[C@@H]21)C(=O)O
B3: apelin polypeptide SEQ ID NO: 267 (peptide)
peptide: Tridecanoyl-[γGlu][AEEA][AEEA]Q[dR]P[NMeR][Cha]SHKG[Oic][Nle]P[Phe(4-Cl)]-OH
SMILES: CCCCCCCCCCCCC(=O)N[C@@H](CCC(=O)NCCOCCOCC(=O)NCCOCCOCC(=O)N[C@@H](CCC(N)=O)C(=O)N[C@H](CCCNC(=N)N)C(=O)N1CCC[C@H]1C(=O)N(C)[C@@H](CCCNC(=N)N)C(=O)N[C@@H](CC1CCCCC1)C(=O)N[C@@H](CO)C(=O)N[C@@H](Cc1c[nH]cn1)C(=O)N[C@@H](CCCCN)C(=O)NCC(=O)N1[C@H](C(=O)N[C@@H](CCCC)C(=O)N2CCC[C@H]2C(=O)N[C@@H](Cc2ccc(Cl)cc2)C(=O)O)C[C@@H]2CCCC[C@@H]21)C(=O)O
B4: apelin polypeptide SEQ ID NO: 272 (peptide)
peptide: Tridecanoyl-[γGlu][AEEA][AEEA][dQ][hArg]P[dR][Cha]SHKG[Oic][Tle]P[Phe(4-Cl)]-OH
SMILES: CCCCCCCCCCCCC(=O)N[C@@H](CCC(=O)NCCOCCOCC(=O)NCCOCCOCC(=O)N[C@H](CCC(N)=O)C(=O)N[C@@H](CCCCNC(=N)N)C(=O)N1CCC[C@H]1C(=O)N[C@H](CCCNC(=N)N)C(=O)N[C@@H](CC1CCCCC1)C(=O)N[C@@H](CO)C(=O)N[C@@H](Cc1c[nH]cn1)C(=O)N[C@@H](CCCCN)C(=O)NCC(=O)N1[C@H](C(=O)N[C@H](C(=O)N2CCC[C@H]2C(=O)N[C@@H](Cc2ccc(Cl)cc2)C(=O)O)C(C)(C)C)C[C@@H]2CCCC[C@@H]21)C(=O)O
B5: apelin polypeptide SEQ ID NO: 266 (peptide)
peptide: Tridecanoyl-[γGlu][AEEA][AEEA]Q[dR]P[dR][Cha]SHKG[Oic][Nle]P[dPhe(4-Cl)]-OH
SMILES: CCCCCCCCCCCCC(=O)N[C@@H](CCC(=O)NCCOCCOCC(=O)NCCOCCOCC(=O)N[C@@H](CCC(N)=O)C(=O)N[C@H](CCCNC(=N)N)C(=O)N1CCC[C@H]1C(=O)N[C@H](CCCNC(=N)N)C(=O)N[C@@H](CC1CCCCC1)C(=O)N[C@@H](CO)C(=O)N[C@@H](Cc1c[nH]cn1)C(=O)N[C@@H](CCCCN)C(=O)NCC(=O)N1[C@H](C(=O)N[C@@H](CCCC)C(=O)N2CCC[C@H]2C(=O)N[C@H](Cc2ccc(Cl)cc2)C(=O)O)C[C@@H]2CCCC[C@@H]21)C(=O)O
B6: apelin polypeptide SEQ ID NO: 270 (peptide)
peptide: Tridecanoyl-[γGlu][AEEA][AEEA][dQ][hArg]P[dR][Cha]SHKG[Oic][Nle][Aib][Phe(4-Cl)]-OH
SMILES: CCCCCCCCCCCCC(=O)N[C@@H](CCC(=O)NCCOCCOCC(=O)NCCOCCOCC(=O)N[C@H](CCC(N)=O)C(=O)N[C@@H](CCCCNC(=N)N)C(=O)N1CCC[C@H]1C(=O)N[C@H](CCCNC(=N)N)C(=O)N[C@@H](CC1CCCCC1)C(=O)N[C@@H](CO)C(=O)N[C@@H](Cc1c[nH]cn1)C(=O)N[C@@H](CCCCN)C(=O)NCC(=O)N1[C@H](C(=O)N[C@@H](CCCC)C(=O)NC(C)(C)C(=O)N[C@@H](Cc2ccc(Cl)cc2)C(=O)O)C[C@@H]2CCCC[C@@H]21)C(=O)O
B7: apelin polypeptide SEQ ID NO: 265 (peptide)
peptide: Tridecanoyl-[γGlu][AEEA][AEEA][dQ][hArg]P[dR][Cha]SHKG[Oic][Nle]P[dPhe(4-Cl)]-OH
SMILES: CCCCCCCCCCCCC(=O)N[C@@H](CCC(=O)NCCOCCOCC(=O)NCCOCCOCC(=O)N[C@H](CCC(N)=O)C(=O)N[C@@H](CCCCNC(=N)N)C(=O)N1CCC[C@H]1C(=O)N[C@H](CCCNC(=N)N)C(=O)N[C@@H](CC1CCCCC1)C(=O)N[C@@H](CO)C(=O)N[C@@H](Cc1c[nH]cn1)C(=O)N[C@@H](CCCCN)C(=O)NCC(=O)N1[C@H](C(=O)N[C@@H](CCCC)C(=O)N2CCC[C@H]2C(=O)N[C@H](Cc2ccc(Cl)cc2)C(=O)O)C[C@@H]2CCCC[C@@H]21)C(=O)O
B8: apelin polypeptide SEQ ID NO: 271 (peptide)
peptide: Tridecanoyl-[γGlu][AEEA][AEEA][dQ][hArg]P[dR][Cha]SHKG[Oic][Nle][Deg][Phe(4-Cl)]-OH
SMILES: CCCCCCCCCCCCC(=O)N[C@@H](CCC(=O)NCCOCCOCC(=O)NCCOCCOCC(=O)N[C@H](CCC(N)=O)C(=O)N[C@@H](CCCCNC(=N)N)C(=O)N1CCC[C@H]1C(=O)N[C@H](CCCNC(=N)N)C(=O)N[C@@H](CC1CCCCC1)C(=O)N[C@@H](CO)C(=O)N[C@@H](Cc1c[nH]cn1)C(=O)N[C@@H](CCCCN)C(=O)NCC(=O)N1[C@H](C(=O)N[C@@H](CCCC)C(=O)NC(CC)(CC)C(=O)N[C@@H](Cc2ccc(Cl)cc2)C(=O)O)C[C@@H]2CCCC[C@@H]21)C(=O)O

The target in one assay is T1, rat APJ receptor. The assay is described as follows: cell-based or functional assay.
For B1, the “EC50 Rat APJ Receptor” value is 5.09 nM.

Consider B2, for which the “EC50 Rat APJ Receptor” value amounted to 52.3 nM.

Consider Tridecanoyl-[γGlu][AEEA][AEEA][dQ][hArg]P[dR][BLeu]SHKG[Oic][Nle]P[Phe(4-Cl)]-OH [apelin polypeptide SEQ ID NO: 274], for which the “EC50 Rat APJ Receptor” value was found to be 46.2 nM.

In the case of Tridecanoyl-[γGlu][AEEA][AEEA][dQ][hArg]P[NMeR][BLeu]SHKG[Oic][Nle]P[Phe(4-Cl)]-OH [apelin polypeptide SEQ ID NO: 275], the “EC50 Rat APJ Receptor” value was 19.3 nM.

With B3, the “EC50 Rat APJ Receptor” value came to 17.6 nM.

As for B4, the “EC50 Rat APJ Receptor” value was 11.5 nM.

In the case of B5, the “EC50 Rat APJ Receptor” value is 33.2 nM.

As to B6, the “EC50 Rat APJ Receptor” value was 1.49 nM.

On to B7, for which the “EC50 Rat APJ Receptor” value is 14.5 nM.

As for Ac-[hArg][hArg]Q[dR]P[dR][NMeL]SHKG[Oic][Phe(4-I)]P[dBip]-OH [apelin polypeptide SEQ ID NO: 20], the “EC50 Rat APJ Receptor” value is 0.706 nM.

Turning to B8, the “EC50 Rat APJ Receptor” value was 7.88 nM.

A further assay concerns the target T2, human APJ receptor. The assay is described as follows: cell-based or functional assay.
In the case of B1, the “EC50 Human APJ Receptor” value was determined as 1.67 nM.

With B2, the “EC50 Human APJ Receptor” value worked out at 73 nM.

As for Tridecanoyl-[γGlu][AEEA][AEEA][dQ][hArg]P[dR][BLeu]SHKG[Oic][Nle]P[Phe(4-Cl)]-OH [apelin polypeptide SEQ ID NO: 274], the “EC50 Human APJ Receptor” value was determined as 8.04 nM.

As for Tridecanoyl-[γGlu][AEEA][AEEA][dQ][hArg]P[NMeR][BLeu]SHKG[Oic][Nle]P[Phe(4-Cl)]-OH [apelin polypeptide SEQ ID NO: 275], the “EC50 Human APJ Receptor” value was found to be 3.43 nM.

On to B3, for which the “EC50 Human APJ Receptor” value was found to be 0.753 nM.

B4: the “EC50 Human APJ Receptor” value stood at 16.8 nM.

As to B5, the “EC50 Human APJ Receptor” value is 5.81 nM.

Regarding B6, the “EC50 Human APJ Receptor” value is 1.76 nM.

In the case of B7, the “EC50 Human APJ Receptor” value is 1.2 nM.

Consider Ac-[hArg][hArg]Q[dR]P[dR][NMeL]SHKG[Oic][Phe(4-I)]P[dBip]-OH [apelin polypeptide SEQ ID NO: 20], for which the “EC50 Human APJ Receptor” value came out at 0.189 nM.

For B8, the “EC50 Human APJ Receptor” value was 11.8 nM.

These data come from patent US10941182 (Amgen, dated 2021).
